According to publication PMC7847548, “Functional Characterization of the γ-Aminobutyric Acid Transporter from Mycobacterium smegmatis MC^2 155 Reveals Sodium-Driven GABA Transport” (Journal of Bacteriology, 2020):

Biological target: the molecule itself
Assay: SEC-MALS; SEC-MALLS, three-detector method; Superose 6 column in 20 mM HEPES pH 7.0, 100 mM NaCl, 5% glycerol, 0.0102% DMNPG; 30 ul of MsGabP at 3 mg/ml injected; protein-detergent complex

B1: γ-aminobutyric acid (GABA) permease GabP from Mycobacterium smegmatis MC^2 155 (natural protein, UniProt A0R5H8 1-473, looked up)
chain: MLESRSDLSSSDEPRSGLARSLKTRHMTMIAIGGAIGAGLFVGSGAVIKTAGPAAIVSYVVAGALVLCTLRMLGEMVVAKPRTGAFADYARIGIGPWAGFTLGWLYWYYYVIIIAVEAVAGAQILAVWVGLPLWLMAMLLMAALTLTNLISVRWFGEFEFWFSGIKVAAIVSFIVVGLLWVFGVWPGDTNGLTNLVAHGGFAPNGFGSIFGAVVVVIFAFGGAEIVTIAAAESAEPAKSVARATTGVIWRIILFYVGSIFLVVCILPWNDASVLSSPYVAALEKLQIPGAGLIMNIVILTAVLSVLNSSIYTSSRMLRVLASHGDAPQWLVRTNTRGVPTRAILASTVVGWVSVVLAYIAPDSLFLFLVNSCGVVAIFMYVMIGVSELRVRRAIEREDPAKLTLKMWFFPYLPIAVIACFVLVLVAMLFDADQRVQLLASVVSLAVVLLAYALRKRHGQVPATDTKQAARTDE
notes: GABA permease GabP, Mycobacterium smegmatis MC^2 155, gene msmeg_6196, amplified from genomic DNA and cloned NheI/SbfI into pL33 (based on pTTQ18); predicted molecular mass 50.7 kDa; pL33 encodes a C-terminal His tag preceded by an HRV-3C protease site; the tag was cleaved on the column, so residues of the cleavage site and of the cloning sites may remain; also called MsGabP; gene product of …
  stoichiometry N: 2
